In patent US20230141177A1 (UNIVERSITY OF BRITISH COLUMBIA, published 2023):

Key:
[1] = target: T1, linear (CGHHQKG) (SEQ ID NO: 2) peptide-BSA (linear (non-cyclized) peptide; conjugated to BSA); assay: SPR multi-cycle kinetics, purified IgG4 vs linear peptide-BSA
T1 construct: also called linear peptide-BSA; linear-BSA peptide

[2] = target: T2, A-beta42 Oligomer (oligomer prep, made in F12 medium) (human); assay: SPR (MASS-1), antibody immobilized, A-beta42 oligomer injected
T2 construct: also called synthetic AβO
T2 sequence (peptide, as listed by the source): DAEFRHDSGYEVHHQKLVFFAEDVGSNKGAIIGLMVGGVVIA
Method: (§1) All surface plasmon resonance (SPR) measurements were performed using a Molecular Affinity Screening System (MASS-1) (Sierra Sensors GmbH, Hamburg, Germany), an analytical biosensor that employs high intensity laser light and high speed optical scanning to monitor binding interactions in real time. In SPR direct binding assays, antibodies are covalently immobilized on individual flow cells of a High Amine Capacity (HAC) sensorchip (Sierra Sensors GmbH, Hamburg, Germany) and ligands flowed over the surface (BSA-conjugated peptides, A-beta42 Monomer and A-beta42 Oligomer). Each sample was diluted and injected in duplicate over the immobilized peptide and BSA reference surfaces, followed by injection of running buffer only for the dissociation phase. After every analytical cycle, the sensor chip surfaces were regenerated. Sensorgrams were double-referenced by subtracting out binding from the BSA reference surfaces and blank running buffer injections, and binding response report points collected in the dissociation phase.

[3] = target: T3, commercial A-beta oligomer (purchased from SynAging) (human); assay: SPR (MASS-1), antibody immobilized, commercial oligomer injected
T3 construct: also called commercial oligomer
T3 sequence (peptide, as listed by the source): as above
Method: as §1

[4] = target: T4, cyclo (CGHHQKG) (SEQ ID NO: 2)-BSA (cyclized peptide, cyclo(CGHHQKG); conjugated to BSA); assay: SPR multi-cycle kinetics, purified IgG4 vs cyclic peptide-BSA
T4 construct: also called cyclic peptide-BSA; cyclo-BSA peptide
T4 sequence (P02769 25-607 limits assumed): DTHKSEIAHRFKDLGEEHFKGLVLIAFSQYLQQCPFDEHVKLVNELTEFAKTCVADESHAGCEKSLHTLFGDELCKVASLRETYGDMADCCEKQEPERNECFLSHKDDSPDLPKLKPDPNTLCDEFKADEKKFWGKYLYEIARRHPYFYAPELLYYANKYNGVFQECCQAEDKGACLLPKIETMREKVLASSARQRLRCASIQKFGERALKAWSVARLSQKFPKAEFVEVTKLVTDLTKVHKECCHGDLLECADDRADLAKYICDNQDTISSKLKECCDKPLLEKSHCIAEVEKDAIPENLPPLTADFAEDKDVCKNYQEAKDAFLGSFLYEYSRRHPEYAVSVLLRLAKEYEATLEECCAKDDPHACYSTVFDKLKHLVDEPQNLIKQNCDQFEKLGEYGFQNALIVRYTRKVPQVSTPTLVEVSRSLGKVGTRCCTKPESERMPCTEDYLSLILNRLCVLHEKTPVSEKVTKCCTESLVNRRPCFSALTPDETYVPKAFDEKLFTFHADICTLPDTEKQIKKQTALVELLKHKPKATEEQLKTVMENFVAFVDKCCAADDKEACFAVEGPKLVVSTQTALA

[5] = target: T1, linear (CGHHQKG) (SEQ ID NO: 2) …; assay: SPR single cycle kinetics; IgG4 in cell supernatant captured on Protein A chip; peptide-BSA injected at four rising concentrations, 0.025 to 0.675 nM [Cont.]
Method: (§2) A four-point, three-fold dilution range from 0.025 nM to 0.675 nM peptide-BSA without regeneration between each concentration was used.

[6] = target: T4, cyclo (CGHHQKG) (SEQ ID NO: 2)-BSA; assay: as above
Method: as §2

T1 sequence (P02769 25-607 limits assumed): as above

Row | Binder | Kd [1] [nM] | koff [1] [s⁻¹] | kon [1] [M⁻¹ s⁻¹] | Binding to oligomer prep (BRU) [2] [BRU] | Binding to commercial oligomer (BRU) [3] [BRU] | Kd [4] [nM] | koff [4] [s⁻¹] | kon [4] [M⁻¹ s⁻¹] | binding result [5] | binding result [6]
1 | parental antibody, PMN310 humanized antibody variant VH2/Vk5 (human IgG4 S241P / kappa) (antibody, V domains shown, also called parental huPMN310; huPMN310) VH: QVQLVQSGAEVKKPGASVKMSCKASGYSFTSYWINWVKQRPGQGLEWIGDVHPGRGVSTYNAKFKSRATLTLDTSISTAYMELSSLRSEDTAVYYCSRSHGNTYWFFDVWGQGTTVTVSS VL: DVLMTQSPLSLPVTLGQPASISCRSSQSIVHSNGNTYLEWYQQRPGQSPRLLIYKVSNRFSGVPDRFSGSGSGTDFTLKISRVEAEDVGVYYCFQGSHVPFTFGQGTKLEIKR | 0.103 | 0.000155 | 1.5e+06 | 85.6 | 3 | 0.0274 | 0.000155 | 5.65e+06 |  | 
2 | Clone 4 (affinity matured VH with parental Vk, human IgG4 S241P / kappa) (antibody, V domains shown) VH: QVQLVQSGAEVKKPGASVKMSCKASGYSFTSYWINWVKQRPGQGLEWIGDVHPGRGVSTYNAKFKSRATLTLDTSISTAYMELSSLRSEDTAVYYCARVSPTGYWFFDVWGQGTTVTVSS VL: DVLMTQSPLSLPVTLGQPASISCRSSQSIVHSNGNTYLEWYQQRPGQSPRLLIYKVSNRFSGVPDRFSGSGSGTDFTLKISRVEAEDVGVYYCFQGSHVPFTFGQGTKLEIKR |  |  |  | 57.3 | 22.6 | 0.0235 | 6.9e-05 | 2.94e+06 |  | 
3 | Clone 5 (affinity matured VH with parental Vk, human IgG4 S241P / kappa) (antibody, V domains shown) VH: QVQLVQSGAEVKKPGASVKMSCKASGYSFTSYWINWVKQRPGQGLEWIGDVHPGRGVSTYNAKFKSRATLTLDTSISTAYMELSSLRSEDTAVYYCARGALSPYWFFDVWGQGTTVTVSS VL: DVLMTQSPLSLPVTLGQPASISCRSSQSIVHSNGNTYLEWYQQRPGQSPRLLIYKVSNRFSGVPDRFSGSGSGTDFTLKISRVEAEDVGVYYCFQGSHVPFTFGQGTKLEIKR | 0.0924 | 0.000138 | 1.49e+06 | 223 | 32.3 | 0.0647 | 0.000132 | 2.04e+06 |  | 

Other lines, results leading:

Row | Kd [1] [nM] | koff [1] [s⁻¹] | kon [1] [M⁻¹ s⁻¹] | Binding to oligomer prep (BRU) [2] [BRU] | Binding to commercial oligomer (BRU) [3] [BRU] | Kd [4] [nM] | koff [4] [s⁻¹] | kon [4] [M⁻¹ s⁻¹] | binding result [5] | binding result [6] | Binder
4 |  |  |  |  |  |  |  |  | no binding | no binding | Clone 13 (antibody, human IgG4 S228P, kappa, V domains shown) VH: QVQLVQSGAEVKKPGASVKMSCKASGYSFTSYWINWVKQRPGQGLEWIGDVHPGRGVSTYNAKFKSRATLTLDTSISTAYMELSSLRSEDTAVYYCARSVGDTYWFYDVWGQGTTVTVSS VL: DVLMTQSPLSLPVTLGQPASISCRSSQSIVHSNGNTYLEWYQQRPGQSPRLLIYKVSNRFSGVPDRFSGSGSGTDFTLKISRVEAEDVGVYYCFQGSHVPFTFGQGTKLEIKR
5 |  |  |  | 30.8 | 22.3 | 0.0289 | 0.000152 | 5.26e+06 |  |  | Clone 14 (affinity matured VH with parental Vk, human IgG4 S241P / kappa) (antibody, V domains shown) VH: QVQLVQSGAEVKKPGASVKMSCKASGYSFTSYWINWVKQRPGQGLEWIGDVHPGRGVSTYNAKFKSRATLTLDTSISTAYMELSSLRSEDTAVYYCAKSDASGYWFFDVWGQGTTVTVSS VL: DVLMTQSPLSLPVTLGQPASISCRSSQSIVHSNGNTYLEWYQQRPGQSPRLLIYKVSNRFSGVPDRFSGSGSGTDFTLKISRVEAEDVGVYYCFQGSHVPFTFGQGTKLEIKR
